According to publication PMC12014896 (2025):
Changes are numbered by the printed parent chain.

B1: COVIC-23 (antibody, V domains shown)
VH: EVQLLESGGGLVQPGGSLRLSCAASGFTFSNYPMNWVRQAPGKGLEWVSTISGSGGNTFYADSVKGRFTISRDNSKNTLYLQMNSLRAEDTAVYYCVRHDEYSFDYWGQGTLVTVSS
B2: COVIC-332 (antibody, V domains shown)
VH: QVQLVQSGAEVKKPGSSLKVSCKASGGTFNNFAISWVRQAPGQGPEWMGRINPILSAAKYAQKFQGRLTITADKSTTTAYMELSSLRSEDTAVYYCAPTGTGESWWFDPWGQGTLVTVSS
VL: QSVLTQPPSASGTPGQRVTISCSGSSSNIGTNYVYWYQQLPGTAPKVLIYGNNQRPSGVPDRFSGSKSGSSASLAISGLRSEDEADYYCAAWDDSLSGPVFGGGTKLTVL
B3: COVIC-362 (antibody, V domains shown)
VH: EVQLVESGGGLVQPGGSLRLSCKASGISVAPHAVTWVRQAPGKGLEWIGVIASNADTYYASWAKGRFTISRDNSKNTLYLQMNSLRAEDTAVYYCARHPGSAGYGYTYYYAMDPWGQGTLVTVSS
VL: DIQMTQSPSSLSASVGDRVTITCQASERVFYGIDWYQQKPGKAPKLLIYGASALWHGVPSRFSGSGSGTDYTLTISSLQPEDFATYYCQQGYMVPIGFGGGTKVEIK
B4: COVIC-152 (antibody, V domains shown)
VH: QVQLQESGPGLVKPSQTLSLTCTVSGGSISSYGYYWSWIRQHPGKGLEWIGYIYYSGSTYYNPSLKSRVTMSVDTSKNQLSLRLNSVSAADTAVYYCARDFGGNSNYFDYWGQGTLVTVSS
VL: AIQLTQSPSSLSASVGDRVTITCRASQGISSALAWYQQKPGKAPNLLIYDASSLESGVPSRFSGSGSGTDFTLTISSLQPEDFATYYCQQFNSSPLTFGGGTKVEIKR
B5: COVIC-299 (antibody, V domains shown)
VH: EVQLVESGGGLVQPGGSLRLSCAASGLIVSRNYMSWVRQAPGKGLEWVSVIYSGGSTFYADSVKGRFTISRDNSKNTLYLQMNSLRAEDTAVYYCARDLNIAGGFDIWGQGTMVTVSS
VL: DIQLTQSPSFLSASVGDRVTITCRASQGISSYLAWYQQKPGKAPKLLIYAASTLQSGVPSRFSGSGSGTDFTLTISSLQPEDFATYYCQHLNIDPITFGQGTRLEIK
B6: COVIC-42 (antibody, V domains shown)
VH: B5 VH with V12I, L27V, R31S, F58Y, N100D, I101V, A102S, F105M, I107V, M113T
VL: not shown
B7: COVIC-78 (antibody, V domains shown)
VH: QVQLVQSGAEVKKPGSSVKVSCKASGGTFSTSTFNWVRQAPGQGLEWMGGIIPIFGTVNYAQKFQGRVTITADESTGTAYMELSSLRSEDTAVYYCATLGQWDLLPRWGQGTLVTVSS
VL: KIVLTQSPDTLSLSPGERATLSCRASQSVDSNYLAWYQQKPGQAPRLLIYGASSRATGIPDRFSGSGSGTDFTLTISRLEPEDFAVYYCQQYGSSYTFGQGTKLEIK
B8: COVIC-61 (antibody)
chain: QVQLQESGGGLVQAGGSLRLSCAASGRTFSEYAMGWFRQAPGKEREFVATISWSGGSTYYTDSVKGRFTISRDNAKNTVYLQMNSLKPDDTAVYYCAAAGLGTVVSEWDYDYDYWGQGTQVTVSSGGSGGSQVQLQESGGGLVQAGGSLRLSCAASGRTFSEYAMGWFRQAPGKEREFVATISWSGGSTYYTDSVKGRFTISRDNAKNTVYLQMNSLKPDDTAVYYCAAAGLGTVVSEWDYDYDYWGQGTQVTVSSGGGGSGGGGSKKKPLDGEYFTLQIRGRERFEMFRELNEALELKDAQAGKEPG
B9: COVIC-159 (antibody, V domains shown)
VH: EVQLVESGGGLIQPGGSLRLSCAASGFTVSSNYMNWVRQAPGKGLEWVSVIYSGGSTYYADSVKGRFTISRDNSKNTLFLQMNSLRAEDSAVYYCARDLGPYGVDVWGQGTTVTVSS
VL: DIQLTQSPSFLSASVGDRVTITCWASQGISSYLAWYQQKPGKAPKLLIYAASTLQSGVPSRFSGSGSGTEFTLTISSLQPEDFATYYCQELNSYPLTFGQGTRLEIKR
B10: COVIC-337 (antibody, V domains shown)
VH: EVQLVQSGAEVKKPGSSVKVSCKASGGTFSMHTIRWVRQAPGQGLEWMGRIIPMLGIVNYAQKFQGRVTISADKSTSTAYMELSSLTSEDTAMYYCAKGSHDVFDIWGQGTMVTVSS
VL: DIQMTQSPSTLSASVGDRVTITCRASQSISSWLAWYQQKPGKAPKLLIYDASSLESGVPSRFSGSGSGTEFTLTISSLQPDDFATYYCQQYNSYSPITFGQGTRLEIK
B11: COVIC-35 (antibody, V domains shown)
VH: EVQLVESGGGVVQPGRSLRLSCAASGFTFSSYAMHWVRQAPGKGLEWVAVISYDGSYKYYADSVKGRFTISRDNSKNTLYLQMNSLTAEDTAVYYCAREGSRQWLVIYFDYWGQGTLVTVSS
VL: AIRMTQSPSSLSASVGDRVTITCRASQSISSYLNWYQQKPGKAPKLLIYAASSLQSGVPSRFSGSGSGTDFTLTISSLQPEDFATYYCQQSYTTFIYTFGQGTKLEIK
B12: COVIC-123 (antibody)
chain: QVQLQESGGGLVQAGGSLRLSCAASGRTFSEYAMGWFRQAPGKEREFVATISWSGGSTYYTDSVKGRFTISRDNAKNTVYLQMNSLKPDDTAVYYCAAAGLGTVVSEWDYDYDYWGQGTQVTVSSGGSGGSQVQLQESGGGLVQAGGSLRLSCAASGRTFSEYAMGWFRQAPGKEREFVATISWSGGSTYYTDSVKGRFTISRDNAKNTVYLQMNSLKPDDTAVYYCAAAGLGTVVSEWDYDYDYWGQGTQVTVSSGGGGSGGGGSEPKSCDKTHTCPPCPAPELLGGKKKPLDGEYFTLQIRGRERFEMFRELNEALELKDAQAGKEPGGGGGSGGGGSQVQLQESGGGLVQAGGSLRLSCAASGRTFSEYAMGWFRQAPGKEREFVATISWSGGSTYYTDSVKGRFTISRDNAKNTVYLQMNSLKPDDTAVYYCAAAGLGTVVSEWDYDYDYWGQGTQVTVSS
B13: COVIC-119 (antibody)
chain 1: QVQLQESGGGLVQAGGSLRLSCAASGRTFSEYAMGWFRQAPGKEREFVATISWSGGSTYYTDSVKGRFTISRDNAKNTVYLQMNSLKPDDTAVYYCAAAGLGTVVSEWDYDYDYWGQGTQVTVSSGGSGGSQVQLQESGGGLVQAGGSLRLSCAASGRTFSEYAMGWFRQAPGKEREFVATISWSGGSTYYTDSVKGRFTISRDNAKNTVYLQMNSLKPDDTAVYYCAAAGLGTVVSEWDYDYDYWGQGTQVTVSSGGGGSGGGGSASTKGPSVFPLAPSSKSTSGGTAALGCLVKDYFPEPVTVSWNSGALTSGVHTFPAVLQSSGLYSLSSVVTVPSSSLGTQTYICNVNHKPSNTKVDKKVEPKSCDKTHTKKKPLDGEYFTLQIRGRERFEMFRELNEALELKDAQAGKEPG
chain 2: QVQLQESGGGLVQAGGSLRLSCAASGRTFSEYAMGWFRQAPGKEREFVATISWSGGSTYYTDSVKGRFTISRDNAKNTVYLQMNSLKPDDTAVYYCAAAGLGTVVSEWDYDYDYWGQGTQVTVSSGGSGGSQVQLQESGGGLVQAGGSLRLSCAASGRTFSEYAMGWFRQAPGKEREFVATISWSGGSTYYTDSVKGRFTISRDNAKNTVYLQMNSLKPDDTAVYYCAAAGLGTVVSEWDYDYDYWGQGTQVTVSSGGGGSGGGGSKRTVAAPSVFIFPPSDEQLKSGTASVVCLLNNFYPREAKVQWKVDNALQSGNSQESVTEQDSKDSTYSLSSTLTLSKADYEKHKVYACEVTHQGLSSPVTKSFNRGEC
B14: COVIC-263 (antibody, V domains shown)
VH: QVQLQESGPRLVKPSETLSLTCTVSGGSISGSNYFWGWIRQPPGKGLEWIGTIYYGGSTYYNPSLKSRVTISVDTSENQFSLKLSSVTAADTAVYYCANLAWLRGYFDYWGQGTLVTVSS
VL: NFMLTQPHSVSESPGKTVTISCTRSSGSIASNYVQWYQQRPGSAPTTVIYEDNQRPSGVPDRFSGSIDSSSNSVSLTISGLKTEDEADYYCQSYDSSNWVFGGGTKLTVLG

Each binder was assayed against SARS-CoV-2 spike RBD (Wuhan-Hu-1) (Severe acute respiratory syndrome …, UniProt P0DTC2) (assay: SPR).

With B1 as the binder, how does the Kd read?
The Kd was 71.3 nM.

For B2, which Kd is on record?
Its Kd is 0.111 nM.

With B3 as the binder, how does the Kd read?
The Kd was 0.00985 nM.

With B4 as the binder, how does the Kd read?
The Kd was 3.02 nM.

With B5 as the binder, how does the Kd read?
The Kd was 0.332 nM.

With B6 as the binder, how does the Kd read?
Its Kd is 11 nM.

For B7, which Kd is on record?
Its Kd is 393 nM.

How did the Kd turn out when B8 was run?
The Kd was 195 nM.

With B9 as the binder, how does the Kd read?
The Kd was 24.9 nM.

B10 was tested. Which Kd did it give?
The Kd was 3.02 nM.

For B11, which Kd is on record?
The Kd was 2.81 nM.

Which Kd does the source give for B12 here?
The Kd was 206 nM.

Which Kd does the source give for B13 here?
The Kd was 179 nM.

B14 was tested. Which Kd did it give?
The Kd was 0.0861 nM.
